System: thrombin-induced focal cerebral ischemic model
Assay: Thrombin-induced focal cerebral ischemic model: survival and neurological symptom score
Assay type: in vivo, male Wistar rats
Procedure: Twenty male Wistar rats (8-weeks age) were used as one group. The rats were anesthetized with halothane, followed by incision and then subjected to carotid artery shunting. A polyethylene catheter containing thrombin (10 international units) was catheterized into the carotid artery, and […] of blood was sucked and reserved in the catheter for 10 minutes. Then, thrombus formed in the catheter was infused into the carotid artery together with thrombin (J. Cereb. Blood Flow Metab., 17, 123 (1997)).
The neurological symptoms of said rats were scored according to the method as described in Brain Res., 452, 323 (1988). The evaluation of score was carried out at 6 hours, 24 hours, 48 hours and 72 hours after infusion of thrombin, and the scores were accumulated. The survival period was determined by monitoring surviving or dead rats at intervals of one hour for the first 72 hours after the infusion of thrombin.
From forty minutes after thrombin infusion, t-PA (Activacin 100,000 international units, product of Kyowa Hakko Kogyo Co., Ltd.) was continuously administered in an amount of 33 μL/min to the anesthetized rats for 15 minutes. (R)-2-propyloctanoic acid (hereinafter referred to as compound A) in an amount of 10 mg/mL/kg was administered through tail vein of the rats three times at 6 hours, 24 hours and 48 hours after the infusion of thrombin.

[1] = accumulated score, rats surviving 72 h, average ± standard error

B1: t-PA: tissue plasminogen activator, thrombolytic agent (Activacin, product of Kyowa Hakko Kogyo Co., Ltd.) (protein, UniProt P00750 36-562, looked up)
Tissue-type plasminogen …: SYQVICRDEKTQMIYQQHQSWLRPVLRSNRVEYCWCNSGRAQCHSVPVKSCSEPRCFNGGTCQQALYFSDFVCQCPEGFAGKCCEIDTRATCYEDQGISYRGTWSTAESGAECTNWNSSALAQKPYSGRRPDAIRLGLGNHNYCRNPDRDSKPWCYVFKAGKYSSEFCSTPACSEGNSDCYFGNGSAYRGTHSLTESGASCLPWNSMILIGKVYTAQNPSAQALGLGKHNYCRNPDGDAKPWCHVLKNRRLTWEYCDVPSCSTCGLRQYSQPQFRIKGGLFADIASHPWQAAIFAKHRRSPGERFLCGGILISSCWILSAAHCFQERFPPHHLTVILGRTYRVVPGEEEQKFEVEKYIVHKEFDDDTYDNDIALLQLKSDSSRCAQESSVVRTVCLPPADLQLPDWTECELSGYGKHEALSPFYSERLKEAHVRLYPSSRCTSQHLLNRTVTDNMLCAGDTRSGGPQANLHDACQGDSGGPLVCLNDGRMTLVGIISWGLGCGQKDVPGVYTKVTNYLDWIRDNMRP
Survival rate after 72 hours (72 hours after thrombin infusion, 20 rats per group, * p<0.05 vs control (Log-rank test)): 35.0%
No. of surviving rats (72 hours after thrombin infusion, 20 rats per group, t-PA infused from 40 min for 15 min, compound A 10 mg/mL/kg i.v. at 6, 24, 48 h): 7
Neurological symptom score, 0 to 6 hours [1]: 3.4 ± 0.2
Neurological symptom score, 0 to 24 hours [1]: 3.4 ± 0.2
Neurological symptom score, 0 to 48 hours [1]: 3.1 ± 0.3
Neurological symptom score, 0 to 72 hours [1]: 3.0 ± 0.3

From US7687489B2, “Agent for treatment of cerebral ischemic diseases” (Ono Pharmaceutical Co., Ltd., priority 2001, dated 2010)
